The target in assay [1] is T1, Syk tandem SH2 (tSH2) fragment, amino acids 9-264 (UniProt P43405 9-264). In words: SPR.
Assay [2] addresses T1, Syk tandem SH2 (tSH2) fragment, amino …. In words: thermal shift assay.

Non-standard residues stand in square brackets, D forms with d. No end group written: not given here. pY = N[C@@H](Cc1ccc(OP(=O)(O)O)cc1)C(=O)O

B1: pITAM peptide from CD3ε chain, doubly phosphorylated (peptide)
peptide: NPD[pY]EPIRKGQRDL[pY]SGLNQR
Regarding B1, half-maximal inhibition in assay [1] (IC50) was put at 15 µM. The Kd (commonly the constant that tells how readily two partners part at equilibrium) in assay [2] turned out to be 4.2 ± 0.68 µM.

For the origin of these results see paper doi:10.1101/524447 (bioRxiv, 2019).
